Data reported in the DeepSol protein solubility set.

Test: soluble on expression in E. coli; label from the status in PepcDB or PDB records

Row | Sequence | soluble on expression in E. coli
1 | MSEEIVLKAGGKIYQGWTKIGITRSLEAMSGAFDLEMTYKFLGNDAQYKAFIEPIKQGQACTVDIGGERVITGYVDDWVPSYDESTITISVSGRDKTADLVDCSIDYPSGQFNNQTLTQIADIVCKPFGIKVIVNTDVGEPFQRIQIEQGETPHELLARLAKQRGVLLTSDTFGNLVITRASKTKAGVSLILGDNVKAARGRFSWRQRFSKFTIKAAGAAHGQWDSAGLPTVGGIKADVTDSEIGRYRPLIIVNEEVTTAEGAAKRGQWERQRSIGKSNMAEYTVTGWRIPQTGKLWNINTLVPVIDEIMGLDEEMLIASILFSEDDAGRLAVISVVRPDAMDIPAQIVKDTKLGGSTW | soluble
2 | MGSDKIHHHHHHMKNRKTPMKEQSPESRRRNFEEVALGYTLEEALEEAQRCLQCPTHPCVSGCPVEIDIPGFIRKLRDGKLEESYRILKSYNNLPAVCGRVCPQEVQCESRCVVGKMKDSEPVAIGRLERFVADWAAENLEEDVKPLAGSKKEKVAVVGSGPAGLTAAADLAKMGYHVDIFEAFHKPGGVLVYGIPEFRLPKRIVEREVSYIRKLGVNFHLNTVVGKTVKVKELLSEYDAVFIGTGAGTPKFMGIPGTNLNGVYSANEFLTRVNLMKAYLFPEYDTPIRVGKKVAVIGAGNTAMDAARSALRLGAEKVYIVYRRTEREMPARREEYHHALEEGIEFLWLTLPIRYIGDANGNVEAMECVRMELKEADGSGRPRPVPIEGSNFVLEVDMVIEAIGQGPNRVLLSEFPGLELNERGYIKADEDTGATSVKGVFAGGDIVTGAATVIKAMGAGKKAAQFIHSYLTGEWNPWQK | not soluble
3 | MAHHHHHHMSKKEAISTPRKSKKAEVVIEGCVTIGSKQLLPSALDESRREQLSKQFDDIIEAHVAIDGGIADPVAAKIKELPTLSVGFIARAMGLNLSNDQVLSLVEMVEERDTVSRGCVPVGPLKEIIVGALMSGVITRQDSVAPTSNRKKRHSVSENRPLMHVSRDSEELIYAAFRTLDVGNRGYMEAEELRHLFRSGLEPFTDEEMENMIAAAADPQNGLIFYEDFVDVLANE | soluble
4 | MAAVKDSCGKGEMATGNGRRLHLGIPEAVFVEDVDSFMKQPGNETADTVLKKLDEQYQKYKFMELNLAQKKRRLKGQIPEIKQTLEILKYMQKKKESTNSMETRFLLADNLYCKASVPPTDKVCLWLGANVMLEYDIDEAQALLEKNLSTATKNLDSLEEDLDFLRDQFTTTEVNMARVYNWDVKRRNKDDSTKNKA | not soluble
5 | MNPFHELEPGPEVPEVVYALIEIPKGSRNKYELDKKTGLLKLDRVLYSPFFYPVDYGIIPQTWYDDGDPFDIMVIMREPVYPLTIIEARPIGIMKMEDSGDKDWKVLAVPVEDPYFNDWKDISDVPKAFLDEIAHFFQRYKELQGKTTKIEGWGNAEEAKREILRAIEMYKEKFGKEE | soluble
6 | MKINLEELKFGTELIKRGFAKMQKGGVIMDVTNAEQAAIAEEAGAVAVMALHKVPADIRAAGGVARMADPKKIQEIIDAVTIPVMAKCRIGHIAEARALEALGVDMIDESEVLTPADVFFHIDKRKFVVPFVCGARSLGEAVRRIWEGAAMIRTKGEAGTGNVVEAVKHMRLINRAIFELQKMNEERIYGVAEKYASRYAELASRVREEMGLESVSRNDVVFEEYTLGEIIDGIYEILLEIRELGRLPVVNFAAGGVATPADAALMMQLGADGVFVGSGIFKSSNPPEYAKAIVEAVQHYDEPEVVAEVSKGLGEAMKGLDVFKLSEDERLQTRGL | not soluble
7 | MGSDKIHHHHHHMPAVVVREYARLTTAPLPQNTLDAAHISPSAFSWLVKLGQQFKANGLQLLELDDQQWLRLDNYVGVLESPCGQVIEILPKHRVEGECINSARKLLRKLILNALQLKQRETEYTDIERFDAPLTEWLMAQFLTELDSVIKRGMRFDYQRIEESQRFLRGQLDVVKQLRQPAGREHIFNIRHDIFTADRAENRLLKTALLRVCKTTQDNDNWRLAHELQSLLHELPTSTDIQADFTTWRSDRLMAHYQAIKPWCEFVLSQHVPLAVQGLWQGISMLFPMERLFESYVAAELDAAVQRMLGVKGEVRTQLASKYLCKHQGKDFFQLQPDLQLKLGADHWILDTKWKLLDASDKENKYGLSQQDFYQLFAYGQTYLGGDGTLVLIYPAWHKFPAGTYLGEFRFNDKLTLKVLPFDLDAQNAAKDLISKLQQGVKQSLPS | not soluble
8 | MSLKIAIVGSGNGAVTAAVDMVDKGHDVRLYCRNESISKFDVALEKGGFDFNNEGEEKFIEFTDISDDMEYVLDGADIVQVIIPSSFIEYYAKVMSKFVTNDHLIFFNIAASMGSIRFMNVLEDRHIDVHPHFAEANTLTYGTRVDFNNAKVDLSLNVRRVFFSTFDRSELNESYEKVSKIYDYLVKEESLLKTNLENGNPEVHPGPTLLNVGRIDYSEEFSLYKEGITKHTVRLLHAIEIERLNLGRKLGFELSTAKESRIQRGYLERKDEDEPLNRLFNTSPVFSQIPGPNHVENRYLTEDIAYGLVLWSSLGRVIDVPTPNIDAVIMIASTILERDFFEEGLTIEELGLDKLGLEEGHHHHHH | soluble
9 | MGSDKIHHHHHHMTAKTFELGPGYTISRVIRGGWQLAGGHGAIDRSQAVTDLIATFDAGIWTYDCADIYTGVEELIGAARLRLASERGLDVAAKMKVHTKLVPDLERLATISRDYIRGIVEQSLRRLKTERLDLVQFHWWDYDQPRYVEAMGWLDELRREGKVRNLGTTNFDTPRLAEILAAGIPLVSQQLQYSVLDQRPAHSLAELAAKNGVSFLCYGSVAGGFLSDKWLGVAEPATPLENRSLVKYKLIIDDFGGWDLFQQLLQALKAVGDRHGVDIATIASAWVLKQPRVAAVIVGARNQAHALANARIMDVALDADDRAKIAAVIAQSQGPLGDVYTLERDRHGRHGSIMHYNLNAGRT | not soluble
10 | MAGHVNGTCAPVIPKVGDEEDGVGQLVANLKEKGTNFVLLKKTPQILELQTILKDRSTNHSDFVFNADRLMRLVIEECLNHLPFTEHTVTTPTGFKYEGIQFNRGNCGVSLCRSGEAMEVSLRQCCRCIRIGKILIGDEQKVLYARLLPDITSRRVLLLYPTIGSGTTVCKAIEVLKEARVPDENIYLVSLFISPTGLKNITRKYPYITVVASDITSLYPNHFSTSYFGAV | not soluble
11 | MSGNSSTDMYLFKKSLKELKGKKGKGTELISVYVPAGRRLSDISQYLRQELSQSSNIKSKTTMKNVQSAIEVILQRLKLLKEPLEMGVIIFAGMIPRGGPGTEKMEVYVLEPPEPVKTFVYRCDSLFYTDPLEDFIQDTEVYGVILVDRNEATIGTVKGKTITVLKKLTSGVPGKFKAGGQSARRLERLIDDAAHQFMVRIGEYATESFMPILEEKKLKGLLLGGPGNTKNEFAEKDYLHHELKKKIIDTFDLCYTEEFGIRELLDKASDLLRDLDLMKEKNLIQKFFKELIKDDGGLSAYGEAQVMKYLEMGAIDTLIVTEDIGITRVTVKCNNCDYAQEVNVKTNEMFKFEEQLKTKACPTCGGAMYIDEEKDIIEHLSDLCHMHNTDIIVVSTDTEEGSQISRAFKGMAAILRYKL | not soluble
12 | MNRISFNSFSNMHSLLSSKFQEHYNDIYDWNGNIENIYKANTFISIGYKLLYPLGVLEANFDKEKLKKFLFRICSYYNDIPYHTSLHAAQVAHFSKSMLFMLDMNHKISAIDEFCLHISSLCHDTGHPGLNNYFLINSENNLALTYNDNSVLENYHCSLLFKTLKNPNYNIFEHYPYHIFISCKKNIIKAILSTDMKNHFEYISDFRTSKEFIDYDNLSNDQIWQIFCLILKASDIGHSTLEWNKHLEWTLKINEEFYLQGLLEKSLNIQNSFLCDINTMNKLALSQIDFLKHLCIPLFNELNYICKNNDVYTHCIQPIENNIERWESHKND | soluble
13 | MRCPWRKTRRHSDNGWYGPRNQIRPDDHRLHRKVRKSRGDSRRAGNGSPRARCFEGAQRRGKSDGLSECGRMKNLLEMVELVRGKRMKIAVGAAEDEEVLKAVARAKEEEIVDPVLFGKRKDIETLVERMNLELEAEIVHVEDPFEAVRKAVESVSRNETQILMKGKIKTSDLFSVFLKKEYGLRTGRTLSAVSVHEVPGYHKILIISDGGLVISPNLQQRMDIVENSILVARALGIEKPKIALLGTGDLKSPLTLEIAALSKIFQQRNDCIVDGPLTLDLAISEELASKAGNSPVAGDADILIVPSIETGNILSKSLVYMARGRAAIVVVGGRVPVVLTSRADDEETRFLSIALSVLVAQKKG | soluble
